# B1: LINE1-mini (parent)
# chain: GGCAGAGCUCAACACAGCGUGGCAAAGUGGCUGUGGCUAGACUGCC
# Variants of: B1
# Assay: self-cleavage, relative activity (ratio to wild type); higher = more cleavage; in vitro, sequencing; the parent is a self-cleaving ribozyme
row,Variant,self-cleavage
1,GGCAGAGCUCAACACAGCGUUGCAAAGUGGCUGUGGCUAGACUGGC [G21U C45G],0.18
2,GGCAGAGCUCAACACAGCGUGGCAAAUUGGCUCUGGCUAGACUGCC [G27U G33C],0.07
3,UGGAGAGCUCAACACAGCGUGGCAAAGUGGCUGUGGCUAGACUGCC [G1U C3G],0.25
4,GGCAGAGCUCAACACAGCGUCGCAAAGCGGCUGUGGCUAGACUGCC [G21C U28C],1.39
5,GGCGGAGCUCAACACAGCGUGGUAAAGUGGCUGUGGCUAGACUGCC [A4G C23U],0.5
6,GGCAGAGCUCAACACAGCCUGGCAAAGUGGCUGGGGCUAGACUGCC [G19C U34G],0.14
7,GGCAGAGCUCAACACAGCGUGGCACAGUGGCUGUCGCUAGACUGCC [A25C G35C],0.1
8,GACAGAGCUCAACACAGCGUGGCAAAGUGCCUGUGGCUAGACUGCC [G2A G30C],0.51
9,GGCAGAGCUCAACACAGCUUGGCAAAGUGGCUGUGGCUAGAGUGCC [G19U C42G],0.07
10,GGCAGAGCUCAACACAGCGUGGCAAAGUUGCUGUGACUAGACUGCC [G29U G36A],0.17
11,GGGAGAGCUCAACACAGCGUGGCAAAGUGGCUGUGGCCAGACUGCC [C3G U38C],0.22
12,GGCAGAGCUCAACACAGCGUGGCAAAGUCGCUGUGGCUAGAUUGCC [G29C C42U],0.22
13,GGCAGAGCUCAACACACCGUGGCAAAGUGCCUGUGGCUAGACUGCC [G17C G30C],0.25
14,GGCAGAGCUCAACACAGCGUGGCAAAGCGGCUGUGGCUAGACUGCG [U28C C46G],1.68
15,GGCAGAGCUCGACACAGCGUGGCAAAGUGGCUGUGGAUAGACUGCC [A11G C37A],0.02
16,GGCAGAGCUCAACACAGCGUGGCAAAGUGGCCGUGGCUAGACUGUC [U32C C45U],0.12
17,GGCGGAGCUCAACACAGCGUGGCAAAGUGGCUGUGGCGAGACUGCC [A4G U38G],0.04
18,GGCAGAGCUCAACUGAGCGUGGCAAAGUGGCUGUGGCUAGACUGCC [A14U C15G],0.04
19,GGCAGAGCUCAACAAAGCGUGGCAAAGUGACUGUGGCUAGACUGCC [C15A G30A],0.06

row,Variant,self-cleavage
1,GGCAGAGCUCAACACAGCGUGGCAAAGUGGCGGUGGCUAGACUGCU [U32G C46U],0.17
2,GGCAGAGCUCAACACAGCGUGGCAAAGUGGCUGAGGCUAGACUGCA [U34A C46A],0.06
3,GGCAGAGCUCAACACAGCGUGGCAAAGUUGCUGUGGCUAUACUGCC [G29U G40U],0.18
4,GGCAGAUCUCAACACAGCGUGGCAAAGUGGCUGUGACUAGACUGCC [G7U G36A],0.11
5,GGCAGAGCUCAACACAGCGGGGCAAAGUGGCUGUGGCUAGACUGUC [U20G C45U],1.62
6,GGCAGAGCACAACACCGCGUGGCAAAGUGGCUGUGGCUAGACUGCC [U9A A16C],0.08
7,GGCAGAGCUCAACACAUCGUGGCAAAGUGGCUGUGGCUAGACCGCC [G17U U43C],0.06
8,GGCAGUGCUCAACACAGCGUGGCAAAGUGGCGGUGGCUAGACUGCC [A6U U32G],0.13
9,GGCAGAGCUCAACACAGCGUGGCAAAGUGGCUGUGGAUAGACUACC [C37A G44A],0.13
10,GGCGGAGCUCAACACAACGUGGCAAAGUGGCUGUGGCUAGACUGCC [A4G G17A],0.06
11,GGCAGAGCUCAACACCGCGUGGCAGAGUGGCUGUGGCUAGACUGCC [A16C A25G],0.07
12,GGCAGAGCUCUACACAGCGUGGCAAAGCGGCUGUGGCUAGACUGCC [A11U U28C],0.22
13,GGCAGAGCACAACAGAGCGUGGCAAAGUGGCUGUGGCUAGACUGCC [U9A C15G],0.25
14,GGCAGUGCUCAACACAGCGUGGCACAGUGGCUGUGGCUAGACUGCC [A6U A25C],0.65
15,GGCAGAGCACAACACAGCGUGGCAAAGUGGCUUUGGCUAGACUGCC [U9A G33U],0.07
16,GGCAGAGCUCAACACAGCGUGGCAAAGGGGAUGUGGCUAGACUGCC [U28G C31A],0.22
17,GGCAGAUCUCAACACAGCGUGGCAAAGUGGCCGUGGCUAGACUGCC [G7U U32C],0.22
18,GGCACAGCUCAUCACAGCGUGGCAAAGUGGCUGUGGCUAGACUGCC [G5C A12U],0.05
19,UGCAGAGCUCAACACAGCGUGGUAAAGUGGCUGUGGCUAGACUGCC [G1U C23U],0.31

row,Variant,self-cleavage
1,GGCAGAGCUCAGCACAGCGUGGCAAAGUGGCUGUGGCUAGAAUGCC [A12G C42A],0.05
2,GGCAGAGCUCAACACAGCGUGGCAAAGUGGCUGUGGAUAGACUGAC [C37A C45A],0.19
3,GGCAGAGCUCAACACAGCGUGGCAAAUUGGCUGUGGCUAGAUUGCC [G27U C42U],0.2
4,GGCAGAGCUCAACAGAGCGUGGCAAAGUGGCUGGGGCUAGACUGCC [C15G U34G],0.02
5,GGCAGAGCUCAACACAGCGUCGCAAAGUGGCUGUGGCUAGACUUCC [G21C G44U],0.28
6,GGCAGAGCUCAACACAGCGUGGAAAAGUGGCUGUGGCUAGACUUCC [C23A G44U],0.28
7,GGCGGAGCUCAACACAGCGUGGCAAAAUGGCUGUGGCUAGACUGCC [A4G G27A],0.4
8,GUCAGAGCUCAACACAGCGUGGCAAAGUGGCUGUUGCUAGACUGCC [G2U G35U],0.07
9,GGCAGAGCUCAACACAGCGUGGGAAAGUGGCUGUGGCUAGACUGGC [C23G C45G],0.77
10,GGAAGAGCUCAACACAGCGUGGCAAAGUGGCUGUGGCUAGACUGCC [C3A],0.58
11,GGCAGAGCUCAAAACAGCGUGGCAAAGUGGCUGUGGCUAGUCUGCC [C13A A41U],0.14
12,GGCAGAGCUCAACGCAGCGUGGCAAAGCGGCUGUGGCUAGACUGCC [A14G U28C],0.04
13,GGGAGAGCUCAACACUGCGUGGCAAAGUGGCUGUGGCUAGACUGCC [C3G A16U],0.18
14,GGCAGAGCUCAACACAGCUUGGCAAAGUGGCUGUGGCUAGACCGCC [G19U U43C],0.07
15,CGCAGAGCUCAACACAGCGUGGCAAAGUGGCUGUGGCUAGACAGCC [G1C U43A],0.02
16,GGCAGAGCUCGACACAGCGUGGCAAAGUGGUUGUGGCUAGACUGCC [A11G C31U],0.02
17,GGCAGAGCUCAAAACAGCGUAGCAAAGUGGCUGUGGCUAGACUGCC [C13A G21A],0.23
18,GGCAGAGCUCCACACAGCGUGGCAAAGUGGCUGUGGCUAGACUGCG [A11C C46G],0.02

# Source: the RNAGym collection of RNA variant scans (doi:10.7554/elife.90254)
